Numbered stars: 1 amine (or outer) side, 2 acyl side, 3 side chain; on linkers, the order of the positions; unused ones are H or OH. Bridge positions count the residues as written; N and C are the ends. Side chains are listed from the residue outwards. Ends that are not written are not given here. * marks the point of attachment. C20 diacid = O=C(O)CCCCCCCCCCCCCCCCCCC(=O)*; γGlu = O=C(O)[C@H](CCC(=O)[*:2])N[*:1]; AEEA = NCCOCCOCC(=O)O
T1: rat calcitonin receptor (rat, UniProt P32214 25-516)
T1 construct: whole, on cells; Membranes prepared from transiently transfected BHK tk'ts 13 cells (Assay VIII); also called rCTR; rCT
T1 sequence (looked up): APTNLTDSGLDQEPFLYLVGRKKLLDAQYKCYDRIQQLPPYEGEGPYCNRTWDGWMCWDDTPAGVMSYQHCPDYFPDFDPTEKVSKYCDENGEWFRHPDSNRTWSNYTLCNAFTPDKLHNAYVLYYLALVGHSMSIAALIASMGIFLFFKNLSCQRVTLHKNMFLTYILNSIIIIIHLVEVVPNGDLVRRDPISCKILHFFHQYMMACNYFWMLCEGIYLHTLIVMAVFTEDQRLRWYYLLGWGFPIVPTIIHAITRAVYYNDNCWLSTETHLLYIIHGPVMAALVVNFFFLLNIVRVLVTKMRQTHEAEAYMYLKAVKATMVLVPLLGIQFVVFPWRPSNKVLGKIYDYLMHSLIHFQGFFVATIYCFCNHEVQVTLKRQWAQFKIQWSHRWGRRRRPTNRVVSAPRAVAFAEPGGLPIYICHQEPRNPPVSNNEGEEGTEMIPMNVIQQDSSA

T2: human calcitonin receptor (human, UniProt P30988 25-474)
T2 construct: whole, on cells; Membranes prepared from a stably transfected BHK cell line (Assay VII); also called hCTR; hCT
T2 sequence (looked up): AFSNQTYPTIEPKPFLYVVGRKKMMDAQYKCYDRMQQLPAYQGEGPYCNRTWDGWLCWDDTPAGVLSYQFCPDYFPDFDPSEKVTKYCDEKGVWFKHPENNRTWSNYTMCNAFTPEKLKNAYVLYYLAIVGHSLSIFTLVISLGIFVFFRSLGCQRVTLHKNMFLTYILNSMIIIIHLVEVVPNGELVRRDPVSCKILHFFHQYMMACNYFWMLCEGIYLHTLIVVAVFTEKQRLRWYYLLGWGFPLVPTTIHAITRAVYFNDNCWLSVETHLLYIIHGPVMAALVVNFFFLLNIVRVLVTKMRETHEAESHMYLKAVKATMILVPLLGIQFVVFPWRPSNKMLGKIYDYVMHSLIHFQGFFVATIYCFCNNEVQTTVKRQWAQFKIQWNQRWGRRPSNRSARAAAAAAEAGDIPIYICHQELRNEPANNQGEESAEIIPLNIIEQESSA

T3: rat amylin receptor (rat calcitonin receptor + rat RAMP 3) (rat, UniProt P32214 25-516; Q9JJ73 23-147)
T3 construct: whole, on cells; Membranes prepared from transiently transfected BHK tk'ts 13 cells (Assay VI); also called rAmylin-R; rAmylin
T3 sequence (looked up) 1: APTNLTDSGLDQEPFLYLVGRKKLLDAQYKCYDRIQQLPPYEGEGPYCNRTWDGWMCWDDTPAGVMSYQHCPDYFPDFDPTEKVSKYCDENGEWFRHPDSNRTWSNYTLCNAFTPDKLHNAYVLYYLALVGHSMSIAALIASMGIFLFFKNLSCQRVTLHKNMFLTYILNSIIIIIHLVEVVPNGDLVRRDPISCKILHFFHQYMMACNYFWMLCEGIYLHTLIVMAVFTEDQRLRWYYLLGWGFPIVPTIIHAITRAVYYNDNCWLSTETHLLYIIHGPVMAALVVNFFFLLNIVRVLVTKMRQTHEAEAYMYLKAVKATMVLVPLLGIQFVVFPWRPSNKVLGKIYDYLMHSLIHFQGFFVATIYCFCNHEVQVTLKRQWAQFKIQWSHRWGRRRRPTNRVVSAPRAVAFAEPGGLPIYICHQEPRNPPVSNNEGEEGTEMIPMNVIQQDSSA
T3 sequence (looked up) 2: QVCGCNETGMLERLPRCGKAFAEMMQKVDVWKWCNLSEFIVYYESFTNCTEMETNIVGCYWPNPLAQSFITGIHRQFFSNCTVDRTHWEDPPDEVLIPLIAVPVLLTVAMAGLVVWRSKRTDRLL


How the values were obtained:
rat calcitonin receptor [1] = target: T1, rat calcitonin receptor; test: ratio of binding IC50s: rat calcitonin receptor / rat amylin receptor (reference)
[2] = target: T2, human calcitonin receptor; test: ratio of binding IC50s: human calcitonin receptor / human amylin receptor (reference)
How it was run: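 IC₅₀ values were derived by one-site competition analysis of SPA counts. Cell membranes (35 ng/μL) with SPA beads were incubated with test compounds for 120 min at 25° C in Hepes buffer, pH 7.4, containing CaCl2, MgCl₂, OA and Tween20.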

[3] = target: T3, rat amylin receptor (rat calcitonin …); test: SPA competition vs 125I-rat amylin, membranes of BHK cells with rat calcitonin receptor + rat RAMP3 (Assay VI)
rat calcitonin receptor [4] = target: T1, rat calcitonin receptor; test: SPA competition vs 125I-calcitonin, membranes of BHK cells with rat calcitonin receptor (Assay VIII)

| Binder | Ratio rCT/rAmylin binding (rat calcitonin receptor [1]) | Ratio hCT/hAmylin binding [2] | IC50 [3] [nM] | IC50 (rat calcitonin receptor [4]) [nM] |
| --- | --- | --- | --- | --- |
| K([AEEA-γGlu-C20 diacid])CNTATCATQRLAHFLRHSSPNFGAIPSSTNVGRNTY-NH2 (disulfide 2-7; N-terminus assumed; SMILES CC[C@H](C)[C@H](NC(=O)[C@H](C)NC(=O)CNC(=O)[C@H](Cc1ccccc1)NC(=O)[C@H](CC(N)=O)NC(=O)[C@@H]1CCCN1C(=O)[C@H](CO)NC(=O)[C@H](CO)NC(=O)[C@H](Cc1c[nH]cn1)NC(=O)[C@H](CCCNC(=N)N)NC(=O)[C@H](CC(C)C)NC(=O)[C@H](Cc1ccccc1)NC(=O)[C@H](Cc1c[nH]cn1)NC(=O)[C@H](C)NC(=O)[C@H](CC(C)C)NC(=O)[C@H](CCCNC(=N)N)NC(=O)[C@H](CCC(N)=O)NC(=O)[C@@H](NC(=O)[C@H](C)NC(=O)[C@@H]1CSSC[C@H](NC(=O)[C@@H](N)CCCCNC(=O)COCCOCCNC(=O)CC[C@H](NC(=O)CCCCCCCCCCCCCCCCCCC(=O)O)C(=O)O)C(=O)N[C@@H](CC(N)=O)C(=O)N[C@@H]([C@@H](C)O)C(=O)N[C@@H](C)C(=O)N[C@@H]([C@@H](C)O)C(=O)N1)[C@@H](C)O)C(=O)N1CCC[C@H]1C(=O)N[C@@H](CO)C(=O)N[C@@H](CO)C(=O)N[C@H](C(=O)N[C@@H](CC(N)=O)C(=O)N[C@H](C(=O)NCC(=O)N[C@@H](CCCNC(=N)N)C(=O)N[C@@H](CC(N)=O)C(=O)N[C@H](C(=O)N[C@@H](Cc1ccc(O)cc1)C(N)=O)[C@@H](C)O)C(C)C)[C@@H](C)O, Analogue of human amylin; also called compound 84) | 94.3 | 120 | 5.05 | 477 |
| K([AEEA-γGlu-C20 diacid])CNTATCATQRLAGFLRHSSPNFGAIPSSTPVGSNTY-NH2 (disulfide 2-7; N-terminus assumed; SMILES CC[C@H](C)[C@H](NC(=O)[C@H](C)NC(=O)CNC(=O)[C@H](Cc1ccccc1)NC(=O)[C@H](CC(N)=O)NC(=O)[C@@H]1CCCN1C(=O)[C@H](CO)NC(=O)[C@H](CO)NC(=O)[C@H](Cc1c[nH]cn1)NC(=O)[C@H](CCCNC(=N)N)NC(=O)[C@H](CC(C)C)NC(=O)[C@H](Cc1ccccc1)NC(=O)CNC(=O)[C@H](C)NC(=O)[C@H](CC(C)C)NC(=O)[C@H](CCCNC(=N)N)NC(=O)[C@H](CCC(N)=O)NC(=O)[C@@H](NC(=O)[C@H](C)NC(=O)[C@@H]1CSSC[C@H](NC(=O)[C@@H](N)CCCCNC(=O)COCCOCCNC(=O)CC[C@H](NC(=O)CCCCCCCCCCCCCCCCCCC(=O)O)C(=O)O)C(=O)N[C@@H](CC(N)=O)C(=O)N[C@@H]([C@@H](C)O)C(=O)N[C@@H](C)C(=O)N[C@@H]([C@@H](C)O)C(=O)N1)[C@@H](C)O)C(=O)N1CCC[C@H]1C(=O)N[C@@H](CO)C(=O)N[C@@H](CO)C(=O)N[C@H](C(=O)N1CCC[C@H]1C(=O)N[C@H](C(=O)NCC(=O)N[C@@H](CO)C(=O)N[C@@H](CC(N)=O)C(=O)N[C@H](C(=O)N[C@@H](Cc1ccc(O)cc1)C(N)=O)[C@@H](C)O)C(C)C)[C@@H](C)O, Analogue of human amylin; also called compound 71) | 162 | 32 | 0.276 | 44.8 |
| K([AEEA-γGlu-C20 diacid])CNTATCATQRLANFLRHSSPNFGAIPSSTPVGSHTY-NH2 (disulfide 2-7; N-terminus assumed; SMILES CC[C@H](C)[C@H](NC(=O)[C@H](C)NC(=O)CNC(=O)[C@H](Cc1ccccc1)NC(=O)[C@H](CC(N)=O)NC(=O)[C@@H]1CCCN1C(=O)[C@H](CO)NC(=O)[C@H](CO)NC(=O)[C@H](Cc1c[nH]cn1)NC(=O)[C@H](CCCNC(=N)N)NC(=O)[C@H](CC(C)C)NC(=O)[C@H](Cc1ccccc1)NC(=O)[C@H](CC(N)=O)NC(=O)[C@H](C)NC(=O)[C@H](CC(C)C)NC(=O)[C@H](CCCNC(=N)N)NC(=O)[C@H](CCC(N)=O)NC(=O)[C@@H](NC(=O)[C@H](C)NC(=O)[C@@H]1CSSC[C@H](NC(=O)[C@@H](N)CCCCNC(=O)COCCOCCNC(=O)CC[C@H](NC(=O)CCCCCCCCCCCCCCCCCCC(=O)O)C(=O)O)C(=O)N[C@@H](CC(N)=O)C(=O)N[C@@H]([C@@H](C)O)C(=O)N[C@@H](C)C(=O)N[C@@H]([C@@H](C)O)C(=O)N1)[C@@H](C)O)C(=O)N1CCC[C@H]1C(=O)N[C@@H](CO)C(=O)N[C@@H](CO)C(=O)N[C@H](C(=O)N1CCC[C@H]1C(=O)N[C@H](C(=O)NCC(=O)N[C@@H](CO)C(=O)N[C@@H](Cc1c[nH]cn1)C(=O)N[C@H](C(=O)N[C@@H](Cc1ccc(O)cc1)C(N)=O)[C@@H](C)O)C(C)C)[C@@H](C)O, Analogue of human amylin; also called compound 57) | 135 | 133 | 0.181 | 24.4 |

Binders with a lower IC50 [3], results first:

| Ratio rCT/rAmylin binding (rat calcitonin receptor [1]) | Ratio hCT/hAmylin binding [2] | IC50 [3] [nM] | IC50 (rat calcitonin receptor [4]) [nM] | Binder |
| --- | --- | --- | --- | --- |
| 131 | 42.6 | 0.04 | 5.26 | K([AEEA-γGlu-C20 diacid])CNTATCATQRLANFLRHSSPNFGAIPSPTNVGPNTY-NH2 (disulfide 2-7; N-terminus assumed; SMILES CC[C@H](C)[C@H](NC(=O)[C@H](C)NC(=O)CNC(=O)[C@H](Cc1ccccc1)NC(=O)[C@H](CC(N)=O)NC(=O)[C@@H]1CCCN1C(=O)[C@H](CO)NC(=O)[C@H](CO)NC(=O)[C@H](Cc1c[nH]cn1)NC(=O)[C@H](CCCNC(=N)N)NC(=O)[C@H](CC(C)C)NC(=O)[C@H](Cc1ccccc1)NC(=O)[C@H](CC(N)=O)NC(=O)[C@H](C)NC(=O)[C@H](CC(C)C)NC(=O)[C@H](CCCNC(=N)N)NC(=O)[C@H](CCC(N)=O)NC(=O)[C@@H](NC(=O)[C@H](C)NC(=O)[C@@H]1CSSC[C@H](NC(=O)[C@@H](N)CCCCNC(=O)COCCOCCNC(=O)CC[C@H](NC(=O)CCCCCCCCCCCCCCCCCCC(=O)O)C(=O)O)C(=O)N[C@@H](CC(N)=O)C(=O)N[C@@H]([C@@H](C)O)C(=O)N[C@@H](C)C(=O)N[C@@H]([C@@H](C)O)C(=O)N1)[C@@H](C)O)C(=O)N1CCC[C@H]1C(=O)N[C@@H](CO)C(=O)N1CCC[C@H]1C(=O)N[C@H](C(=O)N[C@@H](CC(N)=O)C(=O)N[C@H](C(=O)NCC(=O)N1CCC[C@H]1C(=O)N[C@@H](CC(N)=O)C(=O)N[C@H](C(=O)N[C@@H](Cc1ccc(O)cc1)C(N)=O)[C@@H](C)O)C(C)C)[C@@H](C)O, Analogue of human amylin; also called compound 56) |
| 76.6 | 109 | 0.135 | 10.3 | K([AEEA-γGlu-C20 diacid])CNTATCATQRLANFLRHSSPNFGAIPSSTNVGPHTY-NH2 (disulfide 2-7; N-terminus assumed; SMILES CC[C@H](C)[C@H](NC(=O)[C@H](C)NC(=O)CNC(=O)[C@H](Cc1ccccc1)NC(=O)[C@H](CC(N)=O)NC(=O)[C@@H]1CCCN1C(=O)[C@H](CO)NC(=O)[C@H](CO)NC(=O)[C@H](Cc1c[nH]cn1)NC(=O)[C@H](CCCNC(=N)N)NC(=O)[C@H](CC(C)C)NC(=O)[C@H](Cc1ccccc1)NC(=O)[C@H](CC(N)=O)NC(=O)[C@H](C)NC(=O)[C@H](CC(C)C)NC(=O)[C@H](CCCNC(=N)N)NC(=O)[C@H](CCC(N)=O)NC(=O)[C@@H](NC(=O)[C@H](C)NC(=O)[C@@H]1CSSC[C@H](NC(=O)[C@@H](N)CCCCNC(=O)COCCOCCNC(=O)CC[C@H](NC(=O)CCCCCCCCCCCCCCCCCCC(=O)O)C(=O)O)C(=O)N[C@@H](CC(N)=O)C(=O)N[C@@H]([C@@H](C)O)C(=O)N[C@@H](C)C(=O)N[C@@H]([C@@H](C)O)C(=O)N1)[C@@H](C)O)C(=O)N1CCC[C@H]1C(=O)N[C@@H](CO)C(=O)N[C@@H](CO)C(=O)N[C@H](C(=O)N[C@@H](CC(N)=O)C(=O)N[C@H](C(=O)NCC(=O)N1CCC[C@H]1C(=O)N[C@@H](Cc1c[nH]cn1)C(=O)N[C@H](C(=O)N[C@@H](Cc1ccc(O)cc1)C(N)=O)[C@@H](C)O)C(C)C)[C@@H](C)O, Analogue of human amylin; also called compound 58) |
